Experimental data: publication PMC10808242, “Antibodies from dengue patients with prior exposure to Japanese encephalitis virus are broadly neutralizing against Zika virus” (Communications Biology, 2024)

Tests used:
[1] = biological target: T1, mature form virus-like particles of dengue virus serotype 2 (mD2VLP) (Dengue virus type 2, strain 16681 …, UniProt A0A173DS53); experiment: cryo-EM structure; settings: both partners purified
T1 construct: also called mature DENV-2 VLP; pVD2i-C18S; copies: 60 +

[2] = biological target: DENV-1 virus-like particle (prM/E VLP) (dengue virus serotype 1)
[3] = biological target: ZIKV VLP with E R193A (Zika virus); experiment: ELISA
[4] = biological target: ZIKV VLP with E T231A (Zika virus); experiment: ELISA

| Binder | stoichiometry N [1] | FRμNT50, neutralisation of the prototype DENV-1 strain on Vero cells [2] | percent loss of binding relative to ZIKV WT VLP [3] | percent loss of binding relative to ZIKV WT VLP [4] |
| --- | --- | --- | --- | --- |
| huMAb K8b expressed as full-length human IgG1 (K8b-IgG1) (antibody, V domains shown, also called pVCHIg-hG1-K8b + pVCLIg-hκ-K8b) VH: QVQLVQPGAEVVKPGASVKLSCKTSGYTFTSNWMHWVKQAPGQGLEWIGEIDPSDSYTNYNQNFQGKAKLTVDKSTSTAYMEVSSLRSDDTAVYYCARGSNPYYYAMDYWGQGTSVTVSS VL: EIVMMQSPLTLSLSPGERATLSCRASQSVSSNYLAWYQQRPGQAPRLLIYGVSSRATGVPVRFSGSGSGTDFTLTISRLEPEDFAVYYCQHYGGSLSWTFGQGTKVEIK | 60 F(ab) arms per VLP of 60 E proteins |  |  |  |
| huMAb K5 expressed as full-length human IgG1 (K5-IgG1) (antibody, V domains shown) VH: EVQLLESGAEVKKPGSSVKVSCQASGDTFSNSDINWVRQAPGQGLEWMGGIIPAYDTTNYARTFQGRVAITADKSTSTVYMELSRLRSEDTAVYYCATDQRDYFGLGNHFNAQHFWGQGTLVTVSS VL: AIRMTQTPLSLSASVGDRVTITCRASQSISNYLNWYQQRPGKAPNLLIYTASNLHSGVPSRFSGSGSGTDFTLTISSLQPEDFATYYCQQSYSGGYTFGQGPSWEIK |  | 0.771 µg/mL | 70% | 70% |
